Test results taken from paper PMC8438204 (2021).

B1: HigA2 (protein)
chain: MSNRDLFAELSSALVEAKQHSEGKLTLKTHHVNDVGELNISPDEIVSIREQFNMSRGVFARLLHTSSRTLENWEQGRSVPNGQAVTLLKLVQRHPETLSHIAEL
B2: HigB2 (protein)
chain: MKSVFVESTIFEKYRDEYLSDEEYRLFQAELMLNPKLGDVIQGTGGLRKIRVASKGKGKRGGSRIIYYFLDEKRRFYLLTIYGKNEMSDLNANQRKQLMAFMEAWRNEQS

Tests used:
Assay in all cases: competition
HigB2 = target: B2
HigA2 3-23 peptide 3-23 = HigA2 3-23 peptide 3-23 (Vibrio cholerae, UniProt Q9KMA5)
HigA2 3-33 peptide 3-33 = HigA2 3-33 peptide 3-33 (Vibrio cholerae, UniProt Q9KMA5)

Binder | Kd (HigB2) [nM] | Kd (HigA2 3-23 peptide 3-23) [nM] | Kd (HigA2 3-33 peptide 3-33) [nM]
B1 | 0.016 | – | –
B2 | – | 0.003 | ~0.127
